Assay results reported in the supplement of paper PMC7125110.
± gives the standard error. Fewer inactive variants are shown than the library holds.

B1: glmS ribozyme (parent)
chain: AUAAAAGCGCCAGAACUACAGAAAUGUAGUUGACGAGGAGGAGGUUUAUCGAAUUUUCGGCGGAUGCCUCCAAA

Key:
Conditions in all cases: with glucosamine-6-phosphate
[1] = variants of: B1; test: self-cleavage kobs at 160 uM GlcN6P; higher = faster cleavage; RNA array
How it was run: (§1)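 Glucosamine-6-phosphate, from 40 μM to 10 mM in HEPES/KCl/Mg(OAc)2 buffer, was flowed over sequenced MiSeq chips carrying barcoded ribozyme variants transcribed in situ by E. coli RNA polymerase. A hybridised Cy3 probe tracked the variants at 37 °C as tiles were imaged over ~14 h. kobs, kcat and KM were obtained by fitting normalised per-tile medians to exponential decays and then applying weighted Michaelis–Menten fits across concentrations.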

[2] = variants of: B1; test: self-cleavage kobs at 640 uM GlcN6P; higher = faster cleavage; RNA array
How it was run: as §1

[3] = variants of: B1; test: self-cleavage kobs at 2500 uM GlcN6P; higher = faster cleavage; RNA array
How it was run: as §1

[4] = variants of: B1; test: self-cleavage kobs at 10000 uM GlcN6P; higher = faster cleavage; RNA array
How it was run: as §1

Row | Variant | self-cleavage kobs at 160 uM GlcN6P [1] [s⁻¹] | self-cleavage kobs at 640 uM GlcN6P [2] [s⁻¹] | self-cleavage kobs at 2500 uM GlcN6P [3] [s⁻¹] | self-cleavage kobs at 10000 uM GlcN6P [4] [s⁻¹]
1 | C8U G59U G63C | < 1e-05 | < 1e-05 | < 1e-05 | 
2 | G9U G13C G40A G44U G63U | < 1e-05 | < 1e-05 | < 1e-05 | 
3 | G7U G35A G37C U46G U47A C70G | < 1e-05 | < 1e-05 | < 1e-05 | 
4 | G7U U55G U57G C61A A64C C68U | < 1e-05 |  | < 1e-05 | 
5 | C10A A12G C16A U47C G63A C67G | < 1e-05 | < 1e-05 |  | 
6 | G7U G40C G44U U47C G51U | < 1e-05 |  | < 1e-05 | 
7 | G7C C68U | < 1e-05 | < 1e-05 | < 1e-05 | < 1e-05
8 | G9A G43C G44C G62U | < 1e-05 | < 1e-05 | < 1e-05 | 
9 | G7A A36G | < 1e-05 | < 1e-05 | < 1e-05 | 
10 | G9A C11U C16U G63A U65G C68G | 4.96e-05 ± 1.6e-05 | 7.82e-05 ± 1.8e-05 | 3.97e-05 ± 1.5e-05 | 
11 | C11G C67A C71G | 4.73e-05 ± 1.9e-05 | 0.000132 ± 3.5e-05 | 0.000135 ± 4.2e-05 | 
12 | G7A C50A G51A | < 1e-05 | < 1e-05 | < 1e-05 | 
13 | G9A C50U G51U A52U | < 1e-05 |  |  | 
14 | C8A A42U | < 1e-05 | < 1e-05 |  | 
15 | C11A G43U U49C C61A G63C | < 1e-05 |  | < 1e-05 | 
16 | G7A G13A G37C U46G | < 1e-05 |  | < 1e-05 | 
17 | G7A G9U C58A | < 1e-05 | < 1e-05 |  | 
18 | A6U A14G A15U U31G U55G | < 1e-05 | < 1e-05 | < 1e-05 | 
19 | G9C A39C | < 1e-05 | < 1e-05 | < 1e-05 | < 1e-05
20 | A6U C10A A39G G40C C61G C67G | < 1e-05 | < 1e-05 | < 1e-05 | 
21 | C11G U31A U47G | < 1e-05 |  |  | 
22 | C8A G9U C19A G29C C34A A48C | < 1e-05 |  | < 1e-05 | 
23 | G7C G29U A33G | < 1e-05 | < 1e-05 |  | 
24 | C8A A12C | < 1e-05 | < 1e-05 | < 1e-05 | < 1e-05
25 | G7A U56C | < 1e-05 | < 1e-05 | < 1e-05 | < 1e-05
26 | G7U C10U G35A C68G | 0.000125 ± 5.5e-05 |  |  | 0.000284 ± 0.00012

Row | Variant | self-cleavage kobs at 160 uM GlcN6P [1] [s⁻¹] | self-cleavage kobs at 640 uM GlcN6P [2] [s⁻¹] | self-cleavage kobs at 2500 uM GlcN6P [3] [s⁻¹] | self-cleavage kobs at 10000 uM GlcN6P [4] [s⁻¹]
27 | G9A C10U | < 1e-05 | < 1e-05 | < 1e-05 | < 1e-05
28 | C8G U46C A53C | < 1e-05 |  | < 1e-05 | 
29 | C8U A33C C71G | < 1e-05 |  |  | 
30 | A6U G7U G35U U54A | < 1e-05 | < 1e-05 | < 1e-05 | 
31 | G7C A14C U46G | < 1e-05 | < 1e-05 | < 1e-05 | 
32 | C10U G40U G66U C67U | < 1e-05 |  | < 1e-05 | 
33 | G9U G29C | < 1e-05 | < 1e-05 | < 1e-05 | < 1e-05
34 | G7A A33C A42C A48C | < 1e-05 |  | < 1e-05 | 
35 | C8U G9C U31G A33C | < 1e-05 | < 1e-05 | < 1e-05 | 
36 | G7C A14U C16G U30A U56A C67G | < 1e-05 | < 1e-05 |  | 
37 | C8U A33G G37U G43C U54A U56C C67U | < 1e-05 | < 1e-05 | < 1e-05 | 
38 | C10G G32C A48U C61G | < 1e-05 | < 1e-05 |  | 
39 | C10U U56A G62A U65A U69G | 3.94e-05 ± 1.6e-05 |  |  | 
40 | C8U G35U G62C | < 1e-05 | < 1e-05 | < 1e-05 | 
41 | C10A A14G U69G | 0.000148 ± 5.1e-05 | 0.000195 ± 7.6e-05 | 6.53e-05 ± 2.3e-05 | 
42 | G9C A64C | < 1e-05 | < 1e-05 |  | < 1e-05
43 | C8A A33U G51A | < 1e-05 | < 1e-05 |  | 
44 | G9U C16U G29A U45A U54C | < 1e-05 |  |  | 
45 | C11G G13U U45C | < 1e-05 |  |  | 
46 | C10A C34U C50G G62U | 0.00045 ± 0.00013 | 0.000144 ± 4.8e-05 | 8.51e-05 ± 2.1e-05 | 
47 | A6U G44U U55C | < 1e-05 | < 1e-05 | < 1e-05 | 
48 | G9A C50A | < 1e-05 | < 1e-05 | < 1e-05 | < 1e-05
49 | C10A A15G C34A G44A C67A C68A | < 1e-05 | < 1e-05 | < 1e-05 | 
50 | G9U G13C A42U | < 1e-05 | < 1e-05 | < 1e-05 | 
51 | C11G G35A C58G | < 1e-05 | < 1e-05 | < 1e-05 | 
52 | G7U A14C G66U | < 1e-05 |  | < 1e-05 | 

Row | Variant | self-cleavage kobs at 160 uM GlcN6P [1] [s⁻¹] | self-cleavage kobs at 640 uM GlcN6P [2] [s⁻¹] | self-cleavage kobs at 2500 uM GlcN6P [3] [s⁻¹] | self-cleavage kobs at 10000 uM GlcN6P [4] [s⁻¹]
53 | G7U A12U U45G | < 1e-05 | < 1e-05 | < 1e-05 | 
54 | G9U C16G G32U G38A A42G | < 1e-05 |  |  | 
55 | A6U A12C U49C U65G C67G | < 1e-05 |  |  | 
56 | G7A A14C A36C A64U | < 1e-05 | < 1e-05 | < 1e-05 | 
57 | G9U A42G U46G | < 1e-05 | < 1e-05 |  | 
58 | C8A G13A G43U G51U | < 1e-05 |  | < 1e-05 | 
59 | G9U C10U C16U | < 1e-05 |  | < 1e-05 | 
60 | G7C U47A | < 1e-05 | < 1e-05 |  | < 1e-05
61 | G7U G38C C50A | < 1e-05 | < 1e-05 |  | 
62 | G7C C16U G44U | < 1e-05 |  |  | 
63 | G9C C11G C61G G63U | < 1e-05 |  | < 1e-05 | 
64 | G9C U56C C67U C71G | < 1e-05 | < 1e-05 | < 1e-05 | 
65 | C11G A33U C34A G41A U54A | < 1e-05 | < 1e-05 | < 1e-05 | 
66 | C11G A36C U55A | < 1e-05 |  |  | 
67 | G9A C34A G59C | < 1e-05 | < 1e-05 | < 1e-05 | 
68 | C8A A36C A42C G66C C67A | < 1e-05 |  | < 1e-05 | 
69 | C8A G13C U30C G41U | < 1e-05 |  | < 1e-05 | < 1e-05
70 | G9U G13A | < 1e-05 | < 1e-05 |  | < 1e-05
71 | C8G C11U A48U U57G C71U | < 1e-05 |  |  | 
72 | A6U G35U A42C | < 1e-05 | < 1e-05 |  | 
73 | C8G A14U G66U | < 1e-05 | < 1e-05 |  | 
74 | G7U U69C | < 1e-05 |  | < 1e-05 | 
75 | C10G G40A C70A | < 1e-05 | < 1e-05 | < 1e-05 | < 1e-05
76 | G7U A36U C71A | < 1e-05 |  |  | 
77 | C8U A14C | < 1e-05 | < 1e-05 | < 1e-05 | < 1e-05
78 | G9U A53C | < 1e-05 | < 1e-05 |  | < 1e-05

Row | Variant | self-cleavage kobs at 160 uM GlcN6P [1] [s⁻¹] | self-cleavage kobs at 640 uM GlcN6P [2] [s⁻¹] | self-cleavage kobs at 2500 uM GlcN6P [3] [s⁻¹] | self-cleavage kobs at 10000 uM GlcN6P [4] [s⁻¹]
79 | C8A G60A C68A | < 1e-05 |  | < 1e-05 | 
80 | G7A C8A U49G | < 1e-05 |  | < 1e-05 | < 1e-05
81 | C10U C50G C68U C70G | 0.000109 ± 4e-05 |  |  | 
82 | C8G G66A | < 1e-05 | < 1e-05 | < 1e-05 | 
83 | G9U G38A | < 1e-05 | < 1e-05 |  | 
84 | G7U G37A A48C | < 1e-05 | < 1e-05 | < 1e-05 | < 1e-05
85 | C10G G32U U69G | < 1e-05 |  |  | 
86 | G9U U30G G35U G51A | < 1e-05 | < 1e-05 |  | 
87 | C8A C10G C34A | < 1e-05 | < 1e-05 | < 1e-05 | 
88 | C10A A12U U46A | < 1e-05 | < 1e-05 |  | 
89 | C8A A53U U55G | < 1e-05 | < 1e-05 |  | 
90 | C8A G35C G62U | < 1e-05 | < 1e-05 | < 1e-05 | 
91 | A6G U30G C34G | < 1e-05 |  |  | 
92 | C8G A14G A15U G41C U47G U56A | < 1e-05 | < 1e-05 | < 1e-05 | 
93 | C10U G13C C16G G32A | < 1e-05 |  |  | 
94 | C8A C16U G29U G62A | < 1e-05 | < 1e-05 |  | 
95 | G9A U31C G51U G59U C68G | < 1e-05 |  |  | 
96 | C8U U31G G44U C71G | < 1e-05 | < 1e-05 |  | 
97 | C8A C11A | < 1e-05 | < 1e-05 |  | < 1e-05
98 | G7U G43U C68U | < 1e-05 | < 1e-05 | < 1e-05 | < 1e-05
99 | G7U G9C C10G A53C C61U | < 1e-05 |  | < 1e-05 | 
100 | A6U G43C U57G C67U | < 1e-05 |  | < 1e-05 | < 1e-05
101 | A6U G37C C71U | < 1e-05 |  |  | 
102 | G9C G32U A39U G41U | < 1e-05 | < 1e-05 | < 1e-05 | 
103 | G9C G38C | < 1e-05 |  |  | 
